Results on 125 sequences are retold here after the supplement of paper PMC9112550, “Optimization of the antimicrobial peptide Bac7 by deep mutational scanning” (BMC Biology, 2022).
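Further: peptides expressed intracellularly from a pBAD plasmid library in pooled LB shake-flask culture, induced with 0.3% L-arabinose, DNA abundance read by NGS, three biological replicates, DESeq2 with apeglm shrinkage.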

This series relates to Escherichia coli TOP10. Kind of series: shrunken log2 fold change of peptide-encoding DNA abundance (4.5 h post-induction vs induction); higher = less antimicrobial activity (less host growth inhibition). The following applies: time post-induction: 4.5 h; library: site-saturation at positions 5, 18, 19, 20.
With RRIRARPPRLPRPRPRPWTPPRP, the “shrunken log2 fold change” value was 0.123.
The value for RRIRWRPPRLPRPRPRPPNCPRP was -0.11; that for RRIRCRPPRLPRPRPRPYKKPRP was 0.104.
As for RRIRKRPPRLPRPRPRPSAVPRP, the “shrunken log2 fold change” value turned out to be 0.0941.
With RRIRTRPPRLPRPRPRPTWGPRP, the “shrunken log2 fold change” value worked out at 0.31.
To RRIRWRPPRLPRPRPRPPELPRP belongs 0.38; to RRIRHRPPRLPRPRPRPWCWPRP, 0.0593; to RRIRDRPPRLPRPRPRPIASPRP, 0.194.
With RRIRTRPPRLPRPRPRPDCFPRP, the “shrunken log2 fold change” value was -0.138.
To RRIRDRPPRLPRPRPRPVREPRP belongs 0.929.
In the case of RRIRFRPPRLPRPRPRPGAWPRP, the “shrunken log2 fold change” value is -0.15.
In the case of RRIRGRPPRLPRPRPRPRYQPRP, the “shrunken log2 fold change” value is 0.615.
To RRIRERPPRLPRPRPRPKFGPRP belongs 0.37; to RRIRGRPPRLPRPRPRPHTRPRP, 0.559.
To RRIRARPPRLPRPRPRPKSGPRP belongs 0.166.
The value for RRIRDRPPRLPRPRPRPRNVPRP was 0.0903; that for RRIRVRPPRLPRPRPRPLILPRP was -0.409.
Turning to RRIRHRPPRLPRPRPRPKPAPRP, the “shrunken log2 fold change” value turned out to be 0.0168.
The value for RRIRERPPRLPRPRPRPYAEPRP was -0.447.
To RRIRSRPPRLPRPRPRPWEMPRP belongs -0.00146; to RRIRSRPPRLPRPRPRPRMEPRP, 0.0338.
To RRIRARPPRLPRPRPRPFPVPRP belongs -0.0583; to RRIRIRPPRLPRPRPRPLYGPRP, -0.702.
Regarding RRIRNRPPRLPRPRPRPHQIPRP, the “shrunken log2 fold change” value was -0.247.
To RRIRCRPPRLPRPRPRPAAEPRP belongs 0.829; to RRIRLRPPRLPRPRPRPIPMPRP, 0.0494.
RRIRVRPPRLPRPRPRPQCGPRP: the “shrunken log2 fold change” value is -0.0769.
For the sequence RRIRHRPPRLPRPRPRPFNAPRP, the “shrunken log2 fold change” value is -0.495.
Take RRIRHRPPRLPRPRPRPHHFPRP: the “shrunken log2 fold change” value is -0.0916.
RRIRRRPPRLPRPRPRPKDDPRP: the “shrunken log2 fold change” value is 0.302.
To RRIRLRPPRLPRPRPRPFHQPRP belongs -1.
The value for RRIRARPPRLPRPRPRPNACPRP was -0.175; that for RRIRFRPPRLPRPRPRPLTPPRP was 0.0478; that for RRIRQRPPRLPRPRPRPAHGPRP was 0.19.
In the case of RRIRIRPPRLPRPRPRPQPQPRP, the “shrunken log2 fold change” value was found to be 0.0386.
RRIRPRPPRLPRPRPRPQDGPRP: the “shrunken log2 fold change” value came out at 0.0623.
As for RRIRMRPPRLPRPRPRPQETPRP, the “shrunken log2 fold change” value was -0.00161.
For RRIRRRPPRLPRPRPRPVEMPRP, the “shrunken log2 fold change” value amounted to 0.483.
The value for RRIRNRPPRLPRPRPRPNITPRP was -0.693; that for RRIRVRPPRLPRPRPRPFQSPRP was -0.00568.
On to RRIRCRPPRLPRPRPRPYFIPRP, for which the “shrunken log2 fold change” value is -1.18.
The value for RRIRGRPPRLPRPRPRPLMKPRP was 0.635.
RRIRERPPRLPRPRPRPYNNPRP: the “shrunken log2 fold change” value is -0.822.
To RRIRNRPPRLPRPRPRPWVKPRP belongs -0.0802; to RRIRERPPRLPRPRPRPVSHPRP, -0.0904.
As for RRIRIRPPRLPRPRPRPQCSPRP, the “shrunken log2 fold change” value was -0.46.
For RRIRARPPRLPRPRPRPHPQPRP, the “shrunken log2 fold change” value came to 0.45.
Take RRIRFRPPRLPRPRPRPNVYPRP: the “shrunken log2 fold change” value is -0.558.
To RRIRARPPRLPRPRPRPHTSPRP belongs -0.218; to RRIRTRPPRLPRPRPRPGYRPRP, -0.0981; to RRIRFRPPRLPRPRPRPAHGPRP, 0.418.
The value for RRIRVRPPRLPRPRPRPNEWPRP was 0.0106.
To RRIRHRPPRLPRPRPRPITMPRP belongs -0.18; to RRIRERPPRLPRPRPRPPLHPRP, -0.0595; to RRIRLRPPRLPRPRPRPWNGPRP, -0.217.
Take RRIRERPPRLPRPRPRPHRIPRP: the “shrunken log2 fold change” value was -0.229.
With RRIRERPPRLPRPRPRPMSDPRP, the “shrunken log2 fold change” value was -0.235.
To RRIRDRPPRLPRPRPRPQIPPRP belongs -0.085; to RRIRCRPPRLPRPRPRPHMTPRP, -0.331; to RRIRFRPPRLPRPRPRPAYDPRP, -0.293.
As for RRIRCRPPRLPRPRPRPDDCPRP, the “shrunken log2 fold change” value is 0.112.
With RRIRIRPPRLPRPRPRPRGIPRP, the “shrunken log2 fold change” value was -0.0459.
The value for RRIRVRPPRLPRPRPRPKHMPRP was -0.518.
The value for RRIRQRPPRLPRPRPRPTGIPRP was -0.177; that for RRIRGRPPRLPRPRPRPNTFPRP was 0.00502.
The value for RRIRQRPPRLPRPRPRPEVQPRP was -0.0138; that for RRIRIRPPRLPRPRPRPDRPPRP was -0.0549.
Turning to RRIRMRPPRLPRPRPRPDEDPRP, the “shrunken log2 fold change” value was -0.0149.
Take RRIRIRPPRLPRPRPRPISTPRP: the “shrunken log2 fold change” value was -1.54.
With RRIRSRPPRLPRPRPRPEVMPRP, the “shrunken log2 fold change” value was 0.104.
To RRIRERPPRLPRPRPRPVPPPRP belongs 0.22; to RRIRIRPPRLPRPRPRPIGQPRP, -0.0062.
To RRIRIRPPRLPRPRPRPPPTPRP belongs 0.834; to RRIRHRPPRLPRPRPRPPREPRP, 0.204; to RRIRPRPPRLPRPRPRPEYEPRP, -0.0375.
As for RRIRWRPPRLPRPRPRPYNQPRP, the “shrunken log2 fold change” value was -0.807.
Regarding RRIRMRPPRLPRPRPRPNVIPRP, the “shrunken log2 fold change” value was -0.117.
As to RRIRPRPPRLPRPRPRPINCPRP, the “shrunken log2 fold change” value was -0.126.
RRIRNRPPRLPRPRPRPGAPPRP: the “shrunken log2 fold change” value is 0.492.
To RRIRDRPPRLPRPRPRPFYYPRP belongs -0.899; to RRIRYRPPRLPRPRPRPLGLPRP, -0.126.
On to RRIRLRPPRLPRPRPRPSRSPRP, for which the “shrunken log2 fold change” value is -0.0638.
To RRIRRRPPRLPRPRPRPSFRPRP belongs -0.0185; to RRIRARPPRLPRPRPRPMWIPRP, 0.249; to RRIRGRPPRLPRPRPRPSMQPRP, 0.599.
To RRIRRRPPRLPRPRPRPVDPPRP belongs 0.253.
The value for RRIRRRPPRLPRPRPRPGKQPRP was 0.254.
As to RRIRNRPPRLPRPRPRPETMPRP, the “shrunken log2 fold change” value was -0.0713.
The value for RRIRRRPPRLPRPRPRPCRQPRP was 0.0284.
Regarding RRIRARPPRLPRPRPRPPVPPRP, the “shrunken log2 fold change” value was 0.638.
The value for RRIRWRPPRLPRPRPRPTCHPRP was 0.228; that for RRIRNRPPRLPRPRPRPKNSPRP was -0.161.
The value for RRIRHRPPRLPRPRPRPKWTPRP was 0.0551; that for RRIRRRPPRLPRPRPRPPTSPRP was 0.54.
In the case of RRIRTRPPRLPRPRPRPLIIPRP, the “shrunken log2 fold change” value is -0.784.
To RRIRFRPPRLPRPRPRPIFMPRP belongs -0.314.
To RRIRCRPPRLPRPRPRPLMDPRP belongs -0.256.
Turning to RRIRSRPPRLPRPRPRPKAHPRP, the “shrunken log2 fold change” value was 0.277.
The value for RRIRPRPPRLPRPRPRPEQVPRP was 0.0348; that for RRIRSRPPRLPRPRPRPEQVPRP was 0.243; that for RRIRPRPPRLPRPRPRPLQSPRP was 0.0308.
Take RRIRCRPPRLPRPRPRPYNGPRP: the “shrunken log2 fold change” value is -0.216.
The value for RRIRPRPPRLPRPRPRPVFRPRP was -0.332.
To RRIRCRPPRLPRPRPRPQMEPRP belongs 0.04.
For the sequence RRIRYRPPRLPRPRPRPNFAPRP, the “shrunken log2 fold change” value came out at 0.137.
The value for RRIRRRPPRLPRPRPRPIGAPRP was 0.435.
The value for RRIRLRPPRLPRPRPRPDYMPRP was -0.548.
To RRIRYRPPRLPRPRPRPEMLPRP belongs -0.0664.
In the case of RRIRQRPPRLPRPRPRPLPDPRP, the “shrunken log2 fold change” value came out at 0.0466.
The value for RRIRLRPPRLPRPRPRPAMEPRP was -0.0355.
In the case of RRIRMRPPRLPRPRPRPTECPRP, the “shrunken log2 fold change” value was determined as 0.0996.
To RRIRLRPPRLPRPRPRPVNSPRP belongs 0.1; to RRIRHRPPRLPRPRPRPDQKPRP, 0.0292; to RRIRHRPPRLPRPRPRPVWHPRP, 0.0453.
To RRIRWRPPRLPRPRPRPHYYPRP belongs -0.581; to RRIRGRPPRLPRPRPRPEIVPRP, 0.0103; to RRIRGRPPRLPRPRPRPIADPRP, 0.16.
As to RRIRTRPPRLPRPRPRPMWWPRP, the “shrunken log2 fold change” value is -0.0168.
For the sequence RRIRHRPPRLPRPRPRPQINPRP, the “shrunken log2 fold change” value was -0.827.
For RRIRCRPPRLPRPRPRPIGFPRP, the “shrunken log2 fold change” value stood at 0.129.
The value for RRIRIRPPRLPRPRPRPWVGPRP was -0.248.
In the case of RRIRERPPRLPRPRPRPETQPRP, the “shrunken log2 fold change” value is 0.0866.
RRIRTRPPRLPRPRPRPSEVPRP: the “shrunken log2 fold change” value is 0.0146.
To RRIRPRPPRLPRPRPRPKSAPRP belongs 0.532; to RRIRCRPPRLPRPRPRPGMAPRP, 0.418.
